From article PMC10967027 come the findings set out here.

Values joined by “and” are separate entries in the source; they are usually repeats but may differ in a detail not shown here. Identical values can stand only once.

Test [1] has as its target 868-Z11 A94αH/T96βK single chain TCR. Description: SPR; steady state; scTCR immobilised on a CM5 Series S chip by amine coupling (about 2000 RU); peptide/MHC injected at 5 μL/min at concentrations between 50 µM and 2 nM; 25 °C; HBS-EP (10 mM HEPES, 150 mM NaCl, 3 mM EDTA, 0.005% surfactant P-20, pH 7.4); 1:1 binding model; each cell one of three titrations of its group. (In general: Surface plasmon resonance follows binding to a sensor surface in real time, without labels.)

For test [2], the target named is 868-Z11 G104βP/T96βK single chain TCR. The test is described as above.
Test [3] concerns the target 868-Z11 T96βK single chain TCR. The description is as above.
Test [4] concerns the target 868-Z11 single chain TCR (WT), displayed on yeast. Description: flow cytometry on cells; yeast displaying the 868-Z11 scTCR stained with PE-conjugated SL9/HLA-A2 tetramer, 256 pM to 32.8 nM, 30 min at 4°C, PBS-BSA; MFI fit to a 1:1 binding isotherm; apparent KD; in duplicate. A general note: In flow cytometry, cells or beads pass a laser one at a time.
The target in test [5] is 868-Z11 G104βP/T96βK single chain TCR, soluble recombinant.
The target of test [6] is 868-Z11 A94αH/T96βK single chain TCR, soluble recombinant. Description: SPR; steady state; scTCR immobilised on CM5 chip by amine coupling (about 2000 RU); peptide/MHC injected at 50 µM to 2 nM, 5 μL/min; 25°C; HBS-EP pH 7.4; 1:1 model.
Test [7] addresses 868-Z11 G104βP/T96βK single chain TCR, soluble recombinant. The description is as above.
In test [8] the target is 868-Z11 T96βK single chain TCR, soluble recombinant. Described as above.
The target in test [9] is 868-Z11 A94αH single chain TCR, soluble recombinant. Briefly: SPR; single cycle kinetics; scTCR immobilised on CM5 chip by amine coupling (100-300 RU); peptide/MHC injected at 0.6-48 nM, 100 μL/min; 25°C; HBS-EP pH 7.4; 1:1 model.
The target in test [10] is 868-Z11 G104βP single chain TCR, soluble recombinant. The description is as above.

Consider “SL9 Y3F escape variant presented by HLA-A*02:01 (from UniProt P61769 21-119) (peptide-MHC)”, for which the Kd in [1] was 264 µM and 274 µM and 403 µM; in test [2] it was 34 µM and 39.8 µM and 52.3 µM; in [3], 38.6 µM and 39.3 µM and 58.2 µM.
As for “PE-conjugated SL9/HLA-A2 tetramer (from UniProt P61769 21-119) (peptide-MHC)”, the Kd in test [4] amounted to 1.7 nM.
Regarding “SL9 V6I escape variant presented by HLA-A*02:01 (from UniProt P61769 21-119) (peptide-MHC)”, the Kd in [1] is 9.5 µM and 12.4 µM and 17.9 µM; in [2], 0.7 µM and 1.5 µM and 1.6 µM; in test [3], 0.8 µM and 1.1 µM and 1.2 µM.
As for “SL9/HLA-A2 (HIV SL9 epitope presented by HLA-A*02:01), soluble (from UniProt P61769 21-119) (peptide-MHC)”, the peptide EC50 of IL-2 release (ELISA): CD8+ Jurkat 76 cells with the full length 868-Z11 G104βP/T96βK TCR co-cultured with T2 cells pulsed with WT SL9 peptide, 0.1 nM-100 µM in test [5] amounted to 10 nM. Further, the Kd was determined as 33 µM in test [6]; 2200 nM in test [7]; 2500 nM in test [8]; 5.2 nM in [9]; 0.3 nM in test [10].
As for “SL9 T8V escape variant presented by HLA-A*02:01 (from UniProt P61769 21-119) (peptide-MHC)”, the Kd in [1] was 22.2 µM and 24.3 µM and 40.7 µM; in [2] it was 1.4 µM and 3.5 µM and 3.2 µM; in [3] it was 1.6 µM and 1.9 µM and 2.7 µM.
As for “SL9 Y3F/V6I/T8V escape variant presented by HLA-A*02:01 (from UniProt P61769 21-119) (peptide-MHC)”, the Kd was 154 µM and 177 µM and 203 µM in test [1]; 20.4 µM and 28.1 µM and 26.3 µM in test [2]; 17.3 µM and 23.8 µM and 20.2 µM in test [3].
Take “SL9 Y3F/T8V escape variant presented by HLA-A*02:01 (from UniProt P61769 21-119) (peptide-MHC)”: the Kd was 324 µM and 314 µM and 475 µM in [1]; 49.1 µM and 62.5 µM in test [2]; 46 µM and 44.6 µM and 59 µM in test [3].
Consider “SL9 Y3F/V6I escape variant presented by HLA-A*02:01 (from UniProt P61769 21-119) (peptide-MHC)”, for which the Kd in test [1] was 102 µM and 105 µM and 167 µM; in [2] it was 12.5 µM and 18.5 µM and 22.5 µM; in [3], 9.6 µM and 10.2 µM and 15.7 µM.
Turning to “SL9 V6I/T8V escape variant presented by HLA-A*02:01 (from UniProt P61769 21-119) (peptide-MHC)”, the Kd in test [1] is 9.9 µM and 13.7 µM and 17.9 µM; in test [2], 0.8 µM and 1.8 µM and 1.5 µM; in test [3], 0.8 µM and 1.1 µM and 1 µM.
